The values that follow are results of earlier work, collected in paper PMC4291147, “Molecular Basis of Histone Tail Recognition by Human TIP5 PHD Finger and Bromodomain of the Chromatin Remodeling Complex NoRC” (Structure(London, England:1993), 2015).

Like-named read-outs stand apart in the source and are kept apart here.

For data set [1], the target named is Histone H3 K14ac peptide (Homo sapiens) (UniProt P68431). Description: ITC.
The target is the same in data set [2].
Data set [3] has the same target. In words: STD-NMR.

Chain of PCAF bromodomain (Q92831 720-830): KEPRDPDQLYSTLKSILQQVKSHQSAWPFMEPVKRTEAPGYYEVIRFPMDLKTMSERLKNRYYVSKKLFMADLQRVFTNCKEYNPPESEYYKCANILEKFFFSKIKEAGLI
Chain of PCAF BRD (Q92831 723-827): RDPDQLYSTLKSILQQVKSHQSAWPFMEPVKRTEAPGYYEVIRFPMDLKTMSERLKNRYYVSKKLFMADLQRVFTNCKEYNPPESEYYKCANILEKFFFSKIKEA
Chain of SMARCA2 bromodomain (P51531 1375-1509): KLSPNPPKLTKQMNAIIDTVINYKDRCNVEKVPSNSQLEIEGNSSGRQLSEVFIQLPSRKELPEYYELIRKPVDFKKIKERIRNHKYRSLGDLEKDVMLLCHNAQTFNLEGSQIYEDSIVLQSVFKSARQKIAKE
Chain of PB1 BRD2 (Q86U86 177-287): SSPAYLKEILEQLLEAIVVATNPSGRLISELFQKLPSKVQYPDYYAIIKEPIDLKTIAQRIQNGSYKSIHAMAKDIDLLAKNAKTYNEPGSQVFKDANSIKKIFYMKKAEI
Chain of PB1 BRD 2 (Q86U86 177-287): as above
Chain of SMARCA4 BRD (P51532 1453-1564): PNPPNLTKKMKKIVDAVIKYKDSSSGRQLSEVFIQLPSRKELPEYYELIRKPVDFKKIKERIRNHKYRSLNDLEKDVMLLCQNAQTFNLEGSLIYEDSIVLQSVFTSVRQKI
Chain of SMARCA2 BRD (P51531 1378-1506): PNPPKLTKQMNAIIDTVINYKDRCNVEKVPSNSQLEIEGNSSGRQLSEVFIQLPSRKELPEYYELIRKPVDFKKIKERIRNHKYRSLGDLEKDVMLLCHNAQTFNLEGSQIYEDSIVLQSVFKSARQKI
Chain of SMARCA4 bromodomain (P51532 1450-1567): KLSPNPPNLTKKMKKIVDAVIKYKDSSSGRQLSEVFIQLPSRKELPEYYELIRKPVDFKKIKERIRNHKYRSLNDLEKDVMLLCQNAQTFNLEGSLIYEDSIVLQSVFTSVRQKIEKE

On to SMARCA2 BRD (from UniProt P51531), for which the equilibrium dissociation constant (Kd) in data set [1] was 285 µM.
As to PB1 BRD2 (from UniProt Q86U86), in data set [2], the Kd is 500 µM.
PCAF bromodomain (from UniProt Q92831): the Kd was 188 µM in data set [1] and 128 µM in data set [3].
Consider SMARCA4 BRD (from UniProt P51532), for which the Kd in data set [3] was 1200 µM.
As to “SMARCA2 bromodomain (from UniProt P51531)”, the dissociation constant (Kd) in data set [1] is 285 µM.
Take PCAF BRD (from UniProt Q92831): the Kd in data set [1] is 188 µM; in data set [3] it was 128 µM.
Regarding PB1 BRD 2 (from UniProt Q86U86), the equilibrium dissociation constant (Kd) in data set [3] was 500 µM.
In the case of “SMARCA4 bromodomain (from UniProt P51532)”, in data set [3], the Kd is 1200 µM.
